How the values were obtained:
AtNFS1 alone = target: T1, AtNFS1 alone (Arabidopsis thaliana, UniProt O49543); assay: L-alanine production, ninhydrin colorimetric assay at […] nm; assay type: biochemical; settings: no AtFH or AtISD11, 25 mM Tris-HCl pH 8, 100 mM NaCl, 10 uM PLP, 100 uM DTT, 37 °C, low activity
T1 construct: gene NIFS1; mature form, pET32a with His6 tag and TEV site, codon-optimised, E. coli expression; about 48 kDa with His6
T1 sequence (O49543 35-453): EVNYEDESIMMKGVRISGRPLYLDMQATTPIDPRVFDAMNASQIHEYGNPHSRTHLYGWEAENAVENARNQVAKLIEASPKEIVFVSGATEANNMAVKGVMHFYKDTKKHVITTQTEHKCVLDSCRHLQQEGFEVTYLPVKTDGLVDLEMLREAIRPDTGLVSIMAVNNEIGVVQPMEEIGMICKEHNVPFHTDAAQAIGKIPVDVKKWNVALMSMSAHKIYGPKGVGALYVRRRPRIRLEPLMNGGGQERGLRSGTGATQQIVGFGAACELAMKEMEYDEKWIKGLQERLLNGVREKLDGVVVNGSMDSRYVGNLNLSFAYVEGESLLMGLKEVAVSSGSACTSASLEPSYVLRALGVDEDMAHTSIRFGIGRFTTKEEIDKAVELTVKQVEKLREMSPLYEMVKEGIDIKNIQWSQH

[1] = target: AtNFS1-His6 (cysteine desulfurase AtNFS1 from Arabidopsis thaliana, mature form, His6-tagged) (Arabidopsis thaliana) (UniProt O49543)
[2] = target: AtNFS1-His6 (cysteine desulfurase AtNFS1 from Arabidopsis thaliana, mature form, His6-tagged) (Arabidopsis thaliana) (UniProt O49543); remark: listed apart in the source

attenuation of the Fenton reaction (decrease in malondialdehyde produced from dRibose, Fe(II) and H2O2) with AtFH, AtNFS1 and AtISD11 together (30 uM each); AtFH alone about 40% [1] [%]	cysteine desulfurase activity of AtNFS1 in the presence of AtFH and AtISD11 (1:1:1 molar ratio), Vmax [2] [U/mg]	Compound	L-alanine production, ninhydrin colorimetric assay at 565 nm (AtNFS1 alone)
–	–	N[C@@H](CS)C(=O)O [L-cysteine]	in the presence of its substrates, AtNFS1 alone shows low cysteine desulfurase activity
80	47.8	AtFH (frataxin from Arabidopsis thaliana, mature form, without His6 tag) (natural protein)	–
